Patent US20090087417A1, “METHODS FOR PROMOTING DOPAMINERGIC NEURONAL DEVELOPMENT BY USING NG4A-SUBFAMILY AND WNT-LIGANDS” (priority 2002, published 2009)

Key:
Format in all cases: cell-based, rat
VM cultures = assay: TuJ1+ neurons and proliferating clusters, proportion dopaminergic, in VM cultures; settings: for total number of TuJ1+ neurons: FIG. 3f
Protocol: (§1) Ventral mesencephala and cerebral cortices from embryos E13.5-14.5 obtained from timed-mated Sprague-Dawley rats were dissected, mechanically dissociated and plated at a final density of 1×10^5 cells/cm2 on poly-D-lysine coated 12- or 24-well plates in a defined, serum-free medium (N2, consisting of a 1:1 mixture of F12 and DMEM containing insulin (10 ng/ml), transferrin (100 μg/ml), putrescine (100 μM), progesterone (20 nM), selenium (30 nM), glucose (6 mg/ml), and bovine serum albumin (1 mg/ml)). Purified Type 1 astrocytes were obtained from mixed glial cultures derived from the VM or CTX of P1 rats according to a standard protocol (Wagner et al., 1999). After shaking and replating into 12-well plates, astrocytes were grown to confluency in 15% fetal bovine serum-containing media and changed to N2 medium, at which time freshly dissected VM or CTX cells were plated on top of the astrocytes at a density of 1×10^5 cells/cm2. All factors were added once, at the initiation of culture, with the exception of 5-bromodeoxyuridine (BrdU), which was added 4-6 hours prior to fixation. Cultures were maintained in a humidified 5% CO2, 95% air incubator at 37° C. and fixed after given time periods with 4% paraformaldehyde for 45 minutes prior to immunocytochemical analysis.
(§2) Fixed cultures were incubated with one of the following antibodies, diluted appropriately in phosphate-buffered saline (PBS) containing 1% bovine serum albumin and 0.3% Triton-X 100: mouse anti-BrdU, 1:50 (DAKO, Denmark), mouse anti-β-tubulin, Type III (TuJ1), 1:250 (Sigma), mouse anti-TH, 1:1000 (Incstar, USA), rabbit anti-TH, 1:250 (PelFreeze); rabbit anti-Nurr1, 1:2000 (gift from Dr. T. Perlmann, Sweden), rabbit anti-Nurr1, 1:1000 (Santa Cruz, USA) or mouse anti-Nurr1, 1:250 (BD Transduction Laboratories, USA), rabbit anti Adh2 1:4000 (gift from Dr. R. Lindahl, South Carolina). Incubations were either carried out at 4° C. overnight, or at room temperature for 1 hour. Both processes yielded similar results. After washing, cultures were incubated for 1-3 hr with appropriate secondary antibodies (biotinylated 1:500; CY2-, FITC-, or rhodamine-coupled horse-anti-mouse IgG 1:100; or goat-anti-rabbit IgG 1:100; all from Vector, USA), in the same dilution buffer. Brightfield immunostaining was visualized with the Vector Laboratory ABC immunoperoxidase kit, using either NovaRed (red), or AEC (red), SG or 3-3′ dimaminobenzidine tetrahydrochloride (DAB 0.5 mg/ml)/nickel chloride (1.6 mg/ml) (gray/black), or VIP (violet) substrates. Double-staining was performed by sequential single staining as described. The order of staining was only critical for BrdU-double labeling, in which case the BrdU procedure was always performed second. […] Photos were acquired with a Zeiss Axioplan 100M microscope and collected with a Hamamatsu camera C4742-95 (with the QED imaging software).
Only clearly stained cells were counted as positive cells. Spheres were considered positive if they contained one or more positive cell. Quantitative immunocytochemical data on individual cells represent means and standard errors of counts obtained by a blinded observer from 10-20 non-overlapping fields (cells) or in the entire well (clusters), in each of 3-4 wells per condition from 3-4 independent experiments, unless stated otherwise. For each variable, initial statistical comparisons were performed by a global ANOVA, with multiple factors of dose, time point, treatment and/or region; if significant interactions between treatment and any other variable existed, data were further divided into separate times, doses or regions. Fisher's protected least significant difference was used post hoc to identify specific points at which the treatments differed from controls (or each other) only when significant interactions between factor treatment and other variables occurred. Significance for all tests was assumed at the level of p<0.05. […]

[1] = test system: ventral mesencephalic Nurr1+ neuronal precursors; assay: Conversion of VM Nurr1+ precursors into Nurr1+/TH+ dopaminergic neurons (double immunostaining); settings: VM cultures; control approximately 50%
Protocol: as §1
B1A fibroblast lines were cotransfected with the mFz8CRD-IgG/pRK5 and the pIRES puro 2 (Clontech, BD Bioscience, Erembodegem, Belgium) plasmids, using Lipofectamine Plus reagent (Invitrogen, Lidingo, Sweden) according to the instruction of the manufacturer. Upon selection for puromycin resistance (1 μg/ml Sigma, Stockholm, Sweden), clones were isolated and expanded. A clone overexpressing Fz8CRD 700× (real time RT-PCR analysis) was identified. Harvesting and partial purification of Fz8CRD conditioned media were performed as described previously. In all the blocking experiments performed, the Fz8CRD and B1A control partial purified conditioned medias were used at a final concentration of 125-250 μg/ml. […]
Only clearly stained cells were counted as positive cells. […]

[2] = test system: E13.5 primary cultures from the cerebral cortex; assay: Induction of TH in Nurr1+ E13.5 cerebral cortex primary cultures; settings: for proportion of Nurr1 positive cortical cells that expressed TH: Wnt ligands or co-culture with P1 astrocytes
Protocol: as §1, §2
Only clearly stained cells were counted as positive cells. Spheres were considered positive if they contained one or more positive cell. Quantitative immunocytochemical data on individual cells represent means and standard errors of counts obtained by a blinded observer from 10-20 non-overlapping fields (cells) or in the entire well (clusters), in each of 3-4 wells per condition from 3-4 independent experiments, unless stated otherwise. […]

B1: Wnt-1: Partially purified conditioned media from stable fibroblast cell line engineered to secrete Wnt-1 ligand (protein)
chain: ANSSGRWWGIVNIASSTNLLTDSKSLQLVLEPSLQLLSRKQRRLIRQNPGILHSVSGGLQSAVRECKWQFRNRRWNCPTAPGPHLFGKIVNRGCRETAFIFAITSAGVTHSVARSCSEGSIESCTCDYRRRGPGGPDWHWGGCSDNIDFGRLFGREFVDSGEKGRDLRFLMNLHNNEAGRTTVFSEMRQECKCHGMSGSCTVRTCWMRLPTLRAVGDVLRDRFDGASRVLYGNRGSNRASRAELLRLEPEDPAHKPPSPHDLVYFEKSPNFCTYSGRLGTAGTAGRACNSSSPALDGCELLCCGRGHRTRTQRVTERCNCTFHWCCHVSCRNCTHTRVLHECL
modifications: left off: small tags and cut ends
- proportion of VM clusters containing dopaminergic neurons (VM cultures; FIG. 3e): about 30%
- total number of TuJ1+ neurons (VM cultures): increased
- proportion of TH+ (dopaminergic) neurons (VM cultures; FIG. 3g): did not increase
- proportion of Nurr1 positive cells that expressed TH (Nurr1+/TH+) [1]: 70%
- proportion of Nurr1 positive cortical cells that expressed TH [2]: significant increase

B2: Wnt-5a: Partially purified conditioned media from stable fibroblast cell line engineered to secrete Wnt-5a ligand (protein)
chain: IIGAQPLCSQLAGLSQGQKKLCHLYQDHMQYIGEGAKTGIKECQYQFRHRRWNCSTVDNTSVFGRVMQIGSRETAFTYAVSAAGVVNAMSRACREGELSTCGCSRAARPKDLPRDWLWGGCGDNIDYGYRFAKEFVDARERERIHAKGSYESARILMNLHNNEAGRRTVYNLADVACKCHGVSGSCSLKTCWLQLADFRKVGDALKEKYDSAAAMRLNSRGKLVQVNSRFNSPTTQDLVYIDPSPDYCVRNESTGSLGTQGRLCNKTSEGMDGCELMCCGRGYDQFKTVQTERCHCKFHWCCYVKCKKCTEIVDQFVCK
modifications: left off: small tags and cut ends
- enrichment for dopaminergic clusters (VM cultures; FIG. 3e): more than two
- total number of TuJ1+ neurons (VM cultures): did not increase
- enrichment for dopaminergic neurons (VM cultures; FIG. 3g): more than two
- increase in number of proliferating clusters containing TuJ1+ cells (VM cultures; compared to control (FIG. 3d)): did not increase
- proportion of Nurr1 positive cells that expressed TH (Nurr1+/TH+) [1]: 90%
- increase in number of double Nurr1/TH+ cells compared to Wnt-1 ([2]; 3 days): > 4 fold
- increase in number of double Nurr1/TH+ cells compared to control ([2]; 3 days): > 40 fold
- proportion of Nurr1 positive cortical cells that expressed TH [2]: significant increase
